This passage reports self-cleavage results from the RNAGym collection of RNA variant scans (doi:10.1093/nar/gkz1192).

Sequences and labels used below:
B1: CPEB3 Ribozyme (parent)
chain: UAACAGGGGGCCACAGCAGAAGCGUUCACGUCGCAGCCCCUGUCAGAUUCUGGUGAAUCUGCGAAUUCUGCUGUAUAUCUC

In this series the parent is B1. Description: self-cleavage, relative activity (ratio to wild type); higher = more cleavage; in vitro, sequencing. An outline of the steps:
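After error-prone PCR and barcoding, CPEB3 ribozyme mutant libraries were transcribed with T7 RNA polymerase at 37°C for 5 hours, then given 15 min with DNase I before an EDTA stop, and they cleaved during both steps. Reverse transcription with template switching preceded Illumina sequencing. Relative activity divides a variant's cleaved/total read fraction by the unmutated ribozyme's. At least 5 reads were required per variant, and three batches were averaged.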
Turning to A2C U58A, the self-cleavage is 0.2.
On to A2U C62U, for which the self-cleavage was determined as 0.31.
In the case of A2U C62G, the self-cleavage stood at 0.31.
Consider A2G A77C, for which the self-cleavage turned out to be 0.54.
On to A2G A77U, for which the self-cleavage was 0.62.
The value for A2G A77G was 0.64.
The value for U1G U74C was 1.13; that for A2G G10U was 0.36.
As for A2G G10A, the self-cleavage is 0.41.
A2U A20G: the self-cleavage came out at 0.69.
In the case of A2U A20C, the self-cleavage is 0.32.
Turning to A2U A20U, the self-cleavage was 0.41.
Regarding A2G U41A, the self-cleavage worked out at 0.42.
In the case of A2G U41C, the self-cleavage is 0.78.
As to A2G U41G, the self-cleavage came out at 0.49.
Next, A2G G63U: 0.62.
In the case of A2U U58C, the self-cleavage came to 0.42.
With A2U U58A, the self-cleavage was 0.35.
For A2G C4U, the self-cleavage worked out at 1.09.
The value for A2U U74C was 0.91.
Turning to A2U G24U, the self-cleavage stood at 0.34.
Next, A2U G24A: 0.3; A2G G52C: 0.83; A2G G52U: 0.77.
For the variant A2G G52A, the self-cleavage was determined as 0.65.
As to A2G C62A, the self-cleavage came out at 0.15.
Turning to A2G C62U, the self-cleavage stood at 0.32.
Regarding A2U C17U, the self-cleavage is 0.31.
With A2U A75U, the self-cleavage amounted to 1.09.
With A2U A75G, the self-cleavage is 1.04.
For A2U G10U, the self-cleavage was 0.29.
As to A2U G10A, the self-cleavage amounted to 0.26.
As for A3C C17U, the self-cleavage stood at 0.54.
For A3C A35G, the self-cleavage was 1.21.
For A3C A35U, the self-cleavage is 0.81.
A2U A5U: the self-cleavage was found to be 1.09.
Next, A2U A5G: 0.71.
Consider A2G C37A, for which the self-cleavage stood at 0.27.
Consider A2G C37U, for which the self-cleavage was found to be 0.66.
The value for A2C U51G was 0.92; that for A2C U51A was 0.7; that for A2G A21G was 0.42.
Take A2G A21C: the self-cleavage was found to be 0.11.
The value for A2G A21U was 0.35; that for A2G G46A was 0.28; that for A2G G46U was 0.3.
Regarding A3C C44G, the self-cleavage amounted to 0.84.
On to A2C U76C, for which the self-cleavage came out at 1.02.
For A2U C40U, the self-cleavage stood at 0.89.
In the case of A2U C40G, the self-cleavage turned out to be 0.31.
For the variant A2G C79U, the self-cleavage is 0.82.
In the case of A2G C79A, the self-cleavage amounted to 1.01.
As for A2G G9U, the self-cleavage stood at 0.42.
A2G G9A: the self-cleavage is 0.28.
For A3C A15G, the self-cleavage was 1.03.
For A3C A15U, the self-cleavage was determined as 0.77.
Consider A3C A45U, for which the self-cleavage is 0.89.
The value for A3C A45G was 0.93.
On to A2U U43A, for which the self-cleavage amounted to 1.05.
As for A2U U43C, the self-cleavage came to 0.47.
As to A2G G30U, the self-cleavage was found to be 0.69.
Turning to A2G G30A, the self-cleavage came to 0.39.
With A2U U54A, the self-cleavage was 1.15.
With A2U U54G, the self-cleavage is 0.77.
For the variant A2U U54C, the self-cleavage was 1.13.
Regarding A2U A65G, the self-cleavage was determined as 0.26.
Turning to A2U A65U, the self-cleavage stood at 0.29.
For A2U A35C, the self-cleavage was 0.85.
In the case of A2U A35U, the self-cleavage was determined as 0.49.
Turning to A2U A35G, the self-cleavage was found to be 1.19.
For A2C A65G, the self-cleavage is 0.46.
With A2G A56G, the self-cleavage is 0.5.
Next, A2G A56U: 0.31; A3C C39U: 1.13.
Take A2G A5C: the self-cleavage is 0.94.
For A2G A5G, the self-cleavage was found to be 0.73.
As to A2G A5U, the self-cleavage amounted to 0.8.
A2U G19A: the self-cleavage came out at 0.29.
In the case of A3C A56G, the self-cleavage was found to be 1.12.
With A3C A56U, the self-cleavage amounted to 0.65.
Regarding A2U C44A, the self-cleavage is 0.24.
Take A3C A57G: the self-cleavage worked out at 1.19.
Take A2G C12G: the self-cleavage was 0.38.
In the case of A2G C12U, the self-cleavage was determined as 1.04.
Next, A2G C71U: 0.24.
Turning to A2U U25C, the self-cleavage came out at 0.37.
With A2U U25A, the self-cleavage is 0.09.
Next, A2C A28G: 0.51.
The value for A2G G42U was 0.55; that for A2G G42A was 0.05.
A2G C17U: the self-cleavage is 0.56.
For the variant A2G U74G, the self-cleavage stood at 1.01.
Consider A2G U74C, for which the self-cleavage amounted to 1.12.
Regarding A2G U74A, the self-cleavage worked out at 1.07.
Consider A2U G36A, for which the self-cleavage was 0.29.
Take U1G G63U: the self-cleavage is 0.81.
Consider A2C G9U, for which the self-cleavage is 0.21.
Consider A2C A15U, for which the self-cleavage was found to be 0.5.
The value for A2C A15G was 0.69; that for A2G G22U was 0.07.
Turning to A2G G22A, the self-cleavage came to 0.22.
Consider A2U U51C, for which the self-cleavage came to 1.07.
Regarding A2U U51A, the self-cleavage came to 1.17.
Take A2U U51G: the self-cleavage was found to be 1.17.
Next, A2G G8U: 0.11; A2G G8A: 0.3.
Next, U1G U48C: 0.79; U1G A64C: 0.26; A2C G36A: 0.22.
Regarding A2G A20U, the self-cleavage is 0.39.
As for A2G A20G, the self-cleavage was 0.61.
For A2G G7U, the self-cleavage stood at 0.42.
Take A2C: the self-cleavage is 0.91.
Next, A2G: 0.7; A2U: 0.96.
For the variant A2U C4U, the self-cleavage was 1.15.
The value for A2U G9C was 0.45; that for A2U G9A was 0.15; that for A2G A75G was 0.54.
A2G A75U: the self-cleavage was found to be 0.84.
Take U1G A47G: the self-cleavage is 1.16.
For A2G A57G, the self-cleavage came to 0.5.
Take A2G A57U: the self-cleavage was 0.28.
As for A2C U72A, the self-cleavage was found to be 0.72.
For A2C U72C, the self-cleavage amounted to 0.9.
For A2G C39A, the self-cleavage turned out to be 0.09.
The value for A2G G33U was 0.3; that for A2G G33C was 0.32; that for A2U U67A was 0.49.
Consider A2U U67C, for which the self-cleavage was found to be 0.39.
With A2G C68A, the self-cleavage amounted to 0.11.
Take A2G U26A: the self-cleavage worked out at 0.53.
Take A2G U26C: the self-cleavage stood at 0.4.
In the case of A2G U26G, the self-cleavage is 0.18.
As to A2G U51C, the self-cleavage was found to be 0.34.
For the variant A2G U51G, the self-cleavage worked out at 0.79.
In the case of A2G U51A, the self-cleavage is 0.64.
In the case of A2G A3C, the self-cleavage stood at 0.89.
For the variant A2G A3G, the self-cleavage turned out to be 1.01.
As for A2G A64G, the self-cleavage is 0.55.
Take A2G A64U: the self-cleavage came to 0.33.
As for A2G U31C, the self-cleavage is 0.41.
Regarding A2G U31A, the self-cleavage turned out to be 0.43.
For the variant A2U C23U, the self-cleavage amounted to 0.35.
A2G U78A: the self-cleavage was found to be 0.75.
For A2G U78C, the self-cleavage was found to be 0.58.
With A2U G52C, the self-cleavage turned out to be 1.04.
Regarding U1G C23U, the self-cleavage is 0.49.
Take A2U C34U: the self-cleavage is 0.24.
In the case of A2G U25A, the self-cleavage is 0.36.
A2G U25C: the self-cleavage was found to be 0.49.
As for A2C U25C, the self-cleavage is 0.49.
For A2G G36C, the self-cleavage amounted to 0.24.
Next, A2G G36A: 0.16.
On to A2G A13G, for which the self-cleavage worked out at 0.59.
Next, A2G A13U: 0.91; A2G A47C: 0.29; A2G A47G: 0.48.
For the variant A2G U60A, the self-cleavage is 0.22.
Next, A2G U60C: 0.25; A3C A21G: 0.63; A2U C50U: 0.79.
U1G A56G: the self-cleavage is 0.92.
As to A2G C11G, the self-cleavage stood at 0.15.
Consider A2G C11U, for which the self-cleavage was 0.51.
On to A2U A45G, for which the self-cleavage stood at 0.85.
A2U A45U: the self-cleavage was found to be 0.54.
